How the values were obtained:
[1] = substrate: NC(=O)C1=CN([C@@H]2O[C@H](COP(=O)(O)OP(=O)(O)OC[C@H]3O[C@@H](n4cnc5c(N)ncnc54)[C@H](OP(=O)(O)O)[C@@H]3O)[C@@H](O)[C@H]2O)C=CC1; experiment: purified protein; type: biochemical, Streptomyces sp.; details: 3-DAA made in situ by CmaA6 from 1.0 mM 3-AAA, pH 8.0, varied: cofactor
[2] = substrate: [N-]=[N+]=C1C=C(/C=C/C=C/C(=O)O)C=CC1=O; experiment: purified protein; type: biochemical, Streptomyces sp.; details: 800 µM NADPH, 3-DAA made in situ by CmaA6, 25-400 µM, pH 8.0

B1: AvaA7 (Streptomyces sp.) (protein)
chain: MRVLVAGATGVIGHPLVGALRARGHNVSALVRDASRAPEADRVVVADALDREAVLSAVSAARPEVVVHQLTALRLLRDDPPEAFAQTARLRTEGTAHLVEAARAAGARRLVAQSIAFAAAPQGPPVLDEDAPLYVDAPDPGWAATVRAVAELERLVASSDLAGLVLRYGTLYGPGTGYARDGGTALRVLAGKLPLPEGGAGVTSFLHVDDAVGAAVAAVESEATGCLHVTDDEPAPAAQWLPHYARTLGAPPPRTLPAALAPRLLGWFMTHQLTTARGAANDRARTALGWKPTHPSWRDGLGRE
notes: recombinant
With B1 the Km [1] was 138 ± 10 µM, the kcat [1] was 4.433 ± 0.0333 s⁻¹ and the kcat/Km [1] was 31700 M⁻¹ s⁻¹. For the same protein, the Km [2] was 152 ± 31 µM, the kcat [2] was 10.2 ± 0.917 s⁻¹ and the kcat/Km [2] was 66700 M⁻¹ s⁻¹.
